Test [1] has as its target N-terminal SH2 domain of PI3K regulatory subunit 1 (UniProt P27986). Put plainly: FP.
Test [2] has as its target C-terminal SH2 domain of PI3K regulatory subunit 1 (UniProt P27986). The test can be described thus: FP.

Two substances from publication PMC9138545, “Incorporation of Oxidized Phenylalanine Derivatives into Insulin Signaling Relevant Proteins May Link Oxidative Stress to Signaling Conditions Underlying Chronic Insulin Resistance” (Biomedicines, 2022) can be followed below.

N-terminal SH2 domain of PI3K regulatory subunit 1, sequence (P27986 321-433): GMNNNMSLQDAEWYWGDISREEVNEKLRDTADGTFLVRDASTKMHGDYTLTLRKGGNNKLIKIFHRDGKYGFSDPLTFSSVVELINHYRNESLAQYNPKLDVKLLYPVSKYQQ
C-terminal SH2 domain of PI3K regulatory subunit 1, sequence (P27986 614-724): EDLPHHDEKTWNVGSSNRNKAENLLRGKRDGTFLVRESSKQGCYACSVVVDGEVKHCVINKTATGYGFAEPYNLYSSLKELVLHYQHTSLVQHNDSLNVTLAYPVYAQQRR

One may read the Kd as the constant that tells how readily two partners part at equilibrium. The low end stands for a tighter complex, the high end for a looser complex. In the case of “phospho-ortho-Tyr IRS-1 peptide GRKGSGD(pY)MPMSPKV”, the Kd in test [1] was more than 150 µM; in test [2], more than 40 µM.
As for “phospho-meta-Tyr IRS-1 peptide GRKGSGD(pY)MPMSPKV”, the Kd in test [1] amounted to 53.2 µM; in test [2] it was 6.5 µM.
